Data set [1] concerns the target prostate specific membrane antigen (Homo sapiens, UniProt Q04609). Put plainly: Competitive binding sites on PSMA. As to conditions: relative to J591, J533, E99 site. The text has this: To kill or ablate normal, benign hyperplastic, and cancerous prostate epithelial cells, a first antibody, e.g., a modified antibody, can be conjugated with a prodrug which is activated only when in close proximity with a prodrug activator. The prodrug activator is conjugated with a second antibody, e.g., a second modified antibody according to the present invention, preferably one that binds to a non-competing site on the prostate specific membrane antigen molecule. Whether two modified antibodies bind to competing or non-competing binding sites can be determined by conventional competitive binding assays. […] Monoclonal antibody J415, on the other hand, binds to a binding site that is non-competing with the site to which J591, J533, and E99 bind. Thus, for example, the first modified antibody can be one of J591, J533, and E99, and the second modified antibody can be J415. Alternatively, the first modified antibody can be J415, and the second modified antibody can be one of J591, J533, and E99. Drug-prodrug pairs suitable for use in the practice of the present invention are described in Blakely et al., “ZD2767, an Improved System for Antibody-directed Enzyme Prodrug Therapy That Results in Tumor Regressions in Colorectal Tumor Xenografts,” (1996) Cancer Research, 56:3287-3292, which is hereby incorporated by reference.

In data set [2] the target is T1, LNCap membrane preparation (Homo sapiens, UniProt Q04609).
T1 construct: ELISA plates were coated with LNCap membrane preparation; endogenous in cells; host or cells: LNCap (LNCaP) human prostate carcinoma cells, membrane preparation
The experiment in a line: ELISA for binding of J415 deimmunized antibodies to LNCap membrane preparation. How it is done: The J415 deimmunized antibodies (including various combinations of the deimmunized light chain and heavy chain subunits) were tested in an ELISA for binding to LNCap membrane preparation following the protocol as detailed above. ELISA plates were coated with LNCap membrane preparation and blocked with 5% BSA in phosphate buffered saline. Doubling dilutions of the J415 chimeric antibody (murine variable heavy and light chain regions fused to human constant heavy and light chain regions, respectively) and the deimmunized antibodies were applied. Detection was with horseradish peroxidase conjugated goat anti-human IgG and donkey anti-mouse for chimeric and mouse antibodies respectively. Color was developed with o-phenylene diamine substrate.
(In general: An ELISA detects its analyte on a solid surface through an enzyme-linked reagent.)

Data set [3] has as its system PSMA-positive human LNCaP tumors. Further details: species or system nude mice. As to conditions: mouse, in vivo. How it is done:
(§1) Prior to use, the cells were trypsinized, counted and suspended in Matrigel (Collaborative Biomedical Products, Bedford, Mass.). Nu/Nu Balb C mice 8-10 weeks of age were inoculated, in the right and left flanks, with a suspension of 5×10^6 LNCaP cells in Matrigel (BD Biosciences, Bedford Mass.). After a period of 14-18 days, tumors (100-300 mg) had developed. The PSMA-negative DU145 and PC3 cells were implanted in nude mice in an identical manner.
(§2) The PSMA-positive and PSMA-negative tumor bearing mice were injected, via the tail vein, with 80 KBq of the iodinated MAb (400 MBq/mg) in 200 μL of PBS (pH 7.4, 0.2% BSA). Groups of animals (3-8/group) were sacrificed after 2, 4 or 6 days. The major organs and tumors were recovered. The tissue samples were weighed and counted, with appropriate standards in an automatic NaI(Tl) counter. These measured relative activity data (cpm) were background corrected and expressed as a percentage of the injected dose per gram (% ID/g). […] J415, J591 and 7E11 were labeled with ^111In (100 MBq/mg). 80 KBq of the ^111In labeled MAbs were injected in groups of animals. The % ID/g in various organs and tumor tissues was determined at 2-6 days post injection in a similar way as described for ^131I labeled MAbs.
For the imaging studies, animals were injected with 2 MBq of ^111In-DOTA-J591. […]

Data set [4] has the same test system. The experiment in a line: Biodistribution of 131I labeled MAbs in nude mice bearing LNCaP tumors. As to conditions: mouse, in vivo. How it is done:
as §1, §2

Residue numbers refer to the chain shown, from its start. Like-named read-outs stand apart in the source and are kept apart here.

prostate specific membrane antigen, sequence (Q04609 whole entry): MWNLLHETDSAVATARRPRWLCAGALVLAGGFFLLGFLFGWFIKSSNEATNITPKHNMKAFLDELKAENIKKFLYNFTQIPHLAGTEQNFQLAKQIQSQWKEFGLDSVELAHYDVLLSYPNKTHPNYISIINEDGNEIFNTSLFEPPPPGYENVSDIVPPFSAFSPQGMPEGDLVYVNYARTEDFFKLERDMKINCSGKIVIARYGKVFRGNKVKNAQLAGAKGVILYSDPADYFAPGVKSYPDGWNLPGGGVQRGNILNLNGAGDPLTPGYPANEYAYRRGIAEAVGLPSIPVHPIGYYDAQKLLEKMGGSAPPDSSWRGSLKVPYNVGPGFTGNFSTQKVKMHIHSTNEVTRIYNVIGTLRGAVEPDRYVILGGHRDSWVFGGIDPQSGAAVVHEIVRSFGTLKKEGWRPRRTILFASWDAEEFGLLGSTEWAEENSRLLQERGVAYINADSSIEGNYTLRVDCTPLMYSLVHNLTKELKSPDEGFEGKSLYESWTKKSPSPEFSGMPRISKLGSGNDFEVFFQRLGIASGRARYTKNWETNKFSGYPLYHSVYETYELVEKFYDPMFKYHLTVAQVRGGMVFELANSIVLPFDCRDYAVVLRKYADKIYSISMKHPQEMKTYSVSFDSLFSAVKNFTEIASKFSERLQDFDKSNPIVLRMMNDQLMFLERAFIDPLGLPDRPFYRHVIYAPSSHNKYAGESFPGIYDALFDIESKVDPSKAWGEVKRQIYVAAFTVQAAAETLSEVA
T1 sequence (Q04609 whole entry): as above

B1: J533: murine monoclonal antibody to human PSMA, hybridoma ATCC HB-12127 (antibody, V domains shown)
VH: EVQLQQSGPELVKPGASVKMSCKASGYTFTGYVMHWVKQKPGQVLEWIGYINPYNDVTRYNGKFKGKATLTSDKYSSTAYMELSGLTSEDSAVYYCARGENWYYFDSWGRGATLTVSS
VL: DIVLTQSPASLAVSLGQRATISCRASESIDSYDNTFMHWYQQKPGQPPNLLIFRASILESGIPARFSGSGSGTDFTLTIYPVEADDVATYYCHQSIEDPYTFGGGTKLEIK
In the case of B1, the “binding site on the prostate specific membrane antigen molecule” value (“binding site” for short) in data set [1] was “bind to competing binding sites”.

B2: E99: murine monoclonal antibody to human PSMA, hybridoma ATCC HB-12101 (antibody, V domains shown)
VH: QVQLKESGPGLVASSQSLSITCTVSGFSLTAYGINWVRQPPGKGLEWLGVIWPDGNTDYNSTLKSRLNIFKDNSKNQVFLKMSSFQTDDTARYFCARDSYGNFKRGWFDFWGQGTTLTVSS
VL: NIVMTQSQKFMSTSPGDRVRVTCKASQNVGSDVAWYQAKPGQSPRILIYSTSYRYSGVPDRFTAYGSGTDFTLTITNVQSEDLTEYFCQQYNSYPLTFGAGTKLELK
For B2, the “binding site” value in data set [1] is recorded as “bind to competing binding sites”.

B3: DIVH4/DIVK5: deimmunized J415 heavy chain version 4 combined with deimmunized J415 light chain version 5 (antibody, V domains shown)
VH: EVKLEESGGGLVQPGGSMKISCVASGFTFSNYWMNWVRQSPEKGLEWVAEIRSQSNNFATHYAESVKGRVIISRDDSKSSVYLQMNSLRAEDTAVYYCTRRWNNFWGQGTTVTVSS
VL: NIVMTQFPKSMSASAGERMTLTCKASENVGTYVSWYQQKPTQSPKMLIYGASNRFTGVPDRFSGSGSGTDFILTISSVQAEDLVDYYCGQSYTFPYTFGGGTKLEMK
For the molecule B3, in data set [2], the “binding to LNCap as compared to the chimeric antibody” value is on record as “equivalent binding”.

B4: J415: murine monoclonal antibody to human PSMA, hybridoma ATCC HB-12109 (antibody, V domains shown)
VH: B3 VH with I20L, S87N, A94G, V95I, V112L
VL: B3 VL with A13I, A15V, M19V, T41E, S63T, G68A, A80T
For B4, in data set [1], the “binding site” value is on record as “non-competing”. In data set [3], the blood activity was 2.63±0.23 % ID/g and the tumor/blood ratios result was “significantly higher”. In data set [4], the blood activity entry is given as “significantly lower compared to that of 7E11”; the tumor uptake is listed as 12.2±3.24 % injected dose/gram; the “tumor/blood and tumor/muscle ratios” value is reported as “significantly higher”.
